These results are taken from US20060270596A1 (CENTRE NATIONAL DE LA RECHERCHE SCIENTIFIQUE CNRS, published 2006).

Assay [1] addresses T1, GST-THAP3 181-284 (chemokine-binding domain of THAP3) (human, UniProt Q8WTV1 136-239).
T1 construct: not shown: GST (glutathione S-transferase of pGEX2T) and its linker at the N end
T1 sequence: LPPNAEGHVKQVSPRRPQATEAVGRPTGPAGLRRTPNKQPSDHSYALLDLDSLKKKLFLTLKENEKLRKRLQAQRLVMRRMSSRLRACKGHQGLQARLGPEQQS
The experiment in a line: GST pull-down, 35S-labelled in vitro translated molecule.

For assay [2], the target named is T2, human THAP1 (THanatos-Associated-Protein-1), full length (human, UniProt Q9NVV9 1-213).
T2 construct: these tags are not written into the chain; also called hTHAP1; THAP1 wild type
T2 sequence: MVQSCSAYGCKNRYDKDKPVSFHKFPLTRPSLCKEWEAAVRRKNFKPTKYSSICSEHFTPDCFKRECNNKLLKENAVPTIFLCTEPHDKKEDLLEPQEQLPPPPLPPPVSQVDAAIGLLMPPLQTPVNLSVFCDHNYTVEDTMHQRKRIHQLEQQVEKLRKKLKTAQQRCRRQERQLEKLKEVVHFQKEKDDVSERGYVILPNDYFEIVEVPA
In words: yeast two-hybrid.

The target of assay [3] is T3, human chemokine SLC/CCL21, mature form (amino acids 24-134) (human, UniProt O00585 24-134).
T3 construct: GenBank NP-002980; Used as Gal4 fusion in two-hybrid and as 35S-labelled in vitro translation product in pull-downs; also called SLC/6Ckine; SLC/CCL21 wild type
T3 sequence: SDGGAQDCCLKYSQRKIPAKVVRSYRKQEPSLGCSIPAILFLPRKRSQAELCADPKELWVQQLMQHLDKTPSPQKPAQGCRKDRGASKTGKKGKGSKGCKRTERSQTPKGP
The experiment in a line: yeast two-hybrid.

Assay [4] concerns the target T4, GST-THAP1 fusion protein (THAP1 amino acids 1-213) (human, UniProt Q5RCE4 1-213 (Pongo abelii entry)).
T4 construct: Expressed in E. coli, immobilized on glutathione sepharose; also called immobilized GST-THAP1; not shown: glutathione S-transferase encoded by vector pGEX-2T (Amersham Pharmacia Biotech)
T4 sequence: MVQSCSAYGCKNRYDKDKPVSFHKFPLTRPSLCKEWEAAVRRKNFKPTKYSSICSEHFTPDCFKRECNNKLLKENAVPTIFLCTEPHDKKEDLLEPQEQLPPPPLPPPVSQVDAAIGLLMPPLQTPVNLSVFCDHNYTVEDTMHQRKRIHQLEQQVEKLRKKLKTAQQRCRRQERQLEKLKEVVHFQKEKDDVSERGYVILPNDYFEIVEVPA
In words: GST pull-down: in vitro translated 35S-labelled protein on GST-THAP1 immobilised on glutathione sepharose, SDS-PAGE, fluorography. As to the method:
To confirm the results obtained in yeast, THAP1 mutants were also tested in in vitro GST pull down assays. Wild type THAP1 expressed as a GST-tagged fusion protein and immobilized on glutathione sepharose (as described in example 16), was incubated with radiolabeled in vitro translated THAP1 mutants. In vitro-translated THAP1 mutants were generated with the TNT-coupled reticulocyte lysate system (Promega, Madison, Wis., USA) using pGADT7-THAP1-C1, -C2, -C3, -N1, -N2 or -N3 vector as template. 25 μl of each ³⁵S-labelled THAP1 mutant was incubated with immobilized GST or GST-THAP1 wild-type protein overnight at 4° C., in the following binding buffer: 10 mM NaPO4 pH 8.0, 140 mM NaCl, 3 mM MgCl2, 1 mM dithiothreitol (DTT), 0.05% NP40, and 0.2 mM phenylmethyl sulphonyl fluoride (PMSF), 1 mM Na Vanadate, 50 mM β Glycerophosphate, 25 μg/ml chimotrypsine, 5 μg/ml aprotinin, 10 μg/ml Leupeptin. Beads were then washed 5 times in 1 ml binding buffer. Bound proteins were eluted with 2× Laemmli SDS-PAGE sample buffer, fractionated by 10% SDS-PAGE and visualized by fluorography using Amplify (Amersham Pharmacia Biotech). As expected, THAP1-C1, -C2, -C3, -and -N3 interacted with GST/THAP1 (FIG. 16B).

Assay [5] concerns the target T5, GST (glutathione S-transferase) control protein (UniProt P08515 1-218 = GST).
T5 construct: Negative control in GST pull-down assays; also called GST beads; GST alone
In words: GST pull-down, negative control: in vitro translated 35S-labelled chemokine or cytokine on GST alone immobilised on glutathione sepharose, SDS-PAGE, fluorography.

For assay [6], the target named is T2, human THAP1 …. In words: yeast two-hybrid, chemokine bait and THAP1 prey.
Assay [7] addresses T4, GST-THAP1 fusion protein (THAP1 amino …). The experiment in a line: GST pull-down: in vitro translated 35S-labelled chemokine or cytokine on the GST fusion immobilised on glutathione sepharose, SDS-PAGE, fluorography.
Another assay deals with T6, chemokine CXCL8 (UniProt P10145 1-99, limits assumed).
T6 construct: 35S-labelled in vitro translation product
T6 sequence (looked up): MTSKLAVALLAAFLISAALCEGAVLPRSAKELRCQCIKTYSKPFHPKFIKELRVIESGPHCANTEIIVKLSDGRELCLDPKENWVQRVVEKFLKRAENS
The experiment in a line: GST pull-down: in vitro translated 35S-labelled protein on the GST fusion immobilised on glutathione sepharose, SDS-PAGE, fluorography.

Assay [8] has as its target T2, human THAP1 …. In words: yeast two-hybrid, THAP1 bait.

T5 sequence (P08515 whole entry): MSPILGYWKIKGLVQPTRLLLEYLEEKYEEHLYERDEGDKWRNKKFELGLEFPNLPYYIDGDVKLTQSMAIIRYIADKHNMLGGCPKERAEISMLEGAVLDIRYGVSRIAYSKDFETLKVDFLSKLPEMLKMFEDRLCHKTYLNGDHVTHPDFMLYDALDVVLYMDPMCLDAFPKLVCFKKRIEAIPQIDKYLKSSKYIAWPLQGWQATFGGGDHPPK

B1: THAP1-N1 deletion mutant (amino acids 1-90) (other)
chain: MVQSCSAYGCKNRYDKDKPVSFHKFPLTRPSLCKEWEAAVRRKNFKPTKYSSICSEHFTPDCFKRECNNKLLKENAVPTIFLCTEPHDKK
notes: Gal4 fusion, in vitro translation product or GFP fusion according to assay; also called zinc finger domain of THAP1
Regarding B1, the binding result in assay [1], in assay [2], in assay [3] and in assay [4] was “no binding” in each case.

B2: human chemokine ELC/CCL19, mature form (amino acids 22-98) (ligand)
chain: GTNDAEDCCLSVTQKPIPGYIVRNFHYLLIKDGCRVPAVVFTTLRGRQLCAPPDQPWVERIIQRLQRTSAKMKRRSS
notes: Residues are printed against GenBank NM-006274; Gal4-BD fusion or in vitro translation product
Consider B2, for which the binding result in assay [5] is recorded as “no binding”; in assay [6], “binds”.

B3: THAP1-C2 deletion mutant (amino acids 120-213) (other)
chain: MPPLQTPVNLSVFCDHNYTVEDTMHQRKRIHQLEQQVEKLRKKLKTAQQRCRRQERQLEKLKEVVHFQKEKDDVSERGYVILPNDYFEIVEVPA
notes: Gal4 fusion, in vitro translation product or GFP fusion according to assay
Take B3: the binding result in assay [2] and in assay [3] was “binds” throughout.

B4: THAP1-C1 deletion mutant (amino acids 90-213) (other)
chain: KEDLLEPQEQLPPPPLPPPVSQVDAAIGLLMPPLQTPVNLSVFCDHNYTVEDTMHQRKRIHQLEQQVEKLRKKLKTAQQRCRRQERQLEKLKEVVHFQKEKDDVSERGYVILPNDYFEIVEVPA
notes: Gal4 fusion, in vitro translation product or GFP fusion according to assay; also called THAP1-CL; THAP1ΔTHAP
Turning to B4, the binding result in [2] is “binds”.

B5: human cytokine interferon gamma (amino acids 21-166) (ligand)
chain: CYCQDPYVKEAENLKKYFNAGHSDVADNGTLFLGILKNWKEESDRKIMQSQIVSFYFKLFKNFKDDQSIQKSVETIKEDMNVKFFNSNKKKRDDFEKLTNYSVTDLNVQRKAIHELIQVMAELSPAAKTGKRKRSQMLFQGRRASQ
notes: Residues are given against GenBank NM-000619; Negative control; also called IFNγ; IFN
As for B5, the binding result in assay [1], in assay [7], in [5] and in assay [2] was “no binding” each time.

B6: GST-THAP2 133-228 (chemokine-binding domain of THAP2) (other)
chain: EAKKRIIKLEKEIASLRRKMKTCLQKERRATRRWIKATCLVKNLEANSVLPKGTSEHMLPTALSSLPLEDFKILEQDQQDKTLLSLNLKQTKSTFI
notes: Immobilized on glutathione sepharose; not shown: glutathione S-transferase encoded by vector pGEX2T (Amersham Biosciences)
On to B6, for which, in the assay with chemokine CXCL8, the binding result is given as “no binding”.

B7: THAP1-N3 deletion mutant (amino acids 1-192) (other)
chain: MVQSCSAYGCKNRYDKDKPVSFHKFPLTRPSLCKEWEAAVRRKNFKPTKYSSICSEHFTPDCFKRECNNKLLKENAVPTIFLCTEPHDKKEDLLEPQEQLPPPPLPPPVSQVDAAIGLLMPPLQTPVNLSVFCDHNYTVEDTMHQRKRIHQLEQQVEKLRKKLKTAQQRCRRQERQLEKLKEVVHFQKEKDD
notes: as for B3
As to B7, in assay [2], the binding result is given as “binds”.

B8: human chemokine MIG/CXCL9, mature form (amino acids 23-125) (ligand)
chain: TPVVRKGRCSCISTNQGTIHLQSLKDLKQFAPSPSCEKIEIIATLKNGVQTCLNPDSADVKELIKKWEKQVSQKKKQKNGKKHQKKKVLKVRKSQRSRQKKTT
notes: Residues are printed against GenBank NM-002416; Gal4 fusion or in vitro translation product
Turning to B8, in [5], the binding result is “no binding”.

B9: THAP1-C3 deletion mutant (amino acids 143-213) (other)
chain: MHQRKRIHQLEQQVEKLRKKLKTAQQRCRRQERQLEKLKEVVHFQKEKDDVSERGYVILPNDYFEIVEVPA
notes: as for B3
For the molecule B9, the binding result in assay [2] and in [3] was “binds” throughout.

B10: THAP1ΔQRCRR mutant (deletion of residues 168-172) (other)
chain: MVQSCSAYGCKNRYDKDKPVSFHKFPLTRPSLCKEWEAAVRRKNFKPTKYSSICSEHFTPDCFKRECNNKLLKENAVPTIFLCTEPHDKKEDLLEPQEQLPPPPLPPPVSQVDAAIGLLMPPLQTPVNLSVFCDHNYTVEDTMHQRKRIHQLEQQVEKLRKKLKTAQQERQLEKLKEVVHFQKEKDDVSERGYVILPNDYFEIVEVPA
Turning to B10, the binding result in [8] is “no binding”.
